Stoichiometry N and Kd data for one substance are collected here from paper PMC3574121.

Experiment [1] concerns the target His-tagged FIV recombinant p24 capsid protein (Feline Immunodeficiency Virus, Petaluma strain) (Feline immunodeficiency virus (Petaluma strain)) (UniProt P16087). In words: dynamic light scattering; p24-His at 7 mg/ml, 50 mM sodium phosphate pH 7.4, 23°C; mean diameter 6.8 nm, single peak; monomer to dimer.
Experiment [2] shares this target. In words: ITC; dilution ITC: p24 at 7 mg/ml (243 µM) injected into buffer alone, 50 mM sodium phosphate pH 7.4, 30°C; dimer dissociation model; dimer to monomers. (Isothermal titration calorimetry measures the heat released or taken up as one component is titrated into another.)
For experiment [3] the target is unchanged. In words: cross-linking; p24 at 7 mg/ml with BS3 (20:1 w/w BS3:p24), 30 min at room temperature, SDS-PAGE; dimer seen with and not without BS3; no higher molecular weight species.

With “His-tagged FIV recombinant p24 capsid protein (Feline Immunodeficiency Virus, Petaluma strain) (from UniProt P16087 136-357) (natural protein)”, the stoichiometry N in experiment [1] and in experiment [3] was 2 each time. In addition, the equilibrium dissociation constant (Kd) (as a rule, a measure of binding affinity in units of concentration) in experiment [2] was 20 µM.
